Reference: the supplement of paper PMC11780869

Tested on: Bacillus subtilis
Experiment: cleaved RNA product abundance (RNA/gDNA barcode ratio) relative to median wild-type variant (ratio to wild type); higher = more accumulation of the downstream cleavage product
Procedure, shortened: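 The B. subtilis chromosome carried reporter mRNAs, truncated aprE or tetM, containing barcoded RNase Y cleavage-site windows mutagenized using oligos with a 9% error rate. After growth in LB at 37°C from OD600 0.0003 to 0.3, cleaved RNA was gel-selected, reverse transcribed and barcode-sequenced next to genomic DNA barcodes, with UMI collapsing. Each construct's RNA:gDNA barcode ratio was scaled to the median construct with the unmutated site. That scaled ratio is reported as cleaved product abundance.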

[1] = experiment (reporter, strain, medium): exp 2b: truncated aprE reporter, strain BJT200, cleavage site: cggR-gapA (positions -7 to +36 mutated)
[2] = experiment (reporter, strain, medium): exp 4a: truncated aprE reporter, strain BJT201 with 2% xylose (RNase J1 expressed), cleavage site: cggR-gapA (positions -7 to +36 mutated)
[3] = experiment (reporter, strain, medium): exp 8a: truncated aprE reporter, strain BJT201 with 2% xylose (RNase J1 expressed), cleavage site: glnRA (positions -5 to +31 mutated)
[4] = experiment (reporter, strain, medium): exp 6: tetM reporter, strain 168, cleavage site: cggR-gapA (positions -7 to +36 mutated)

## ACAGACGAAGGAGCCGCAAAGAAGTTATTAATGGATGAATAATACCTCAATATAAATATCTCTCACTTATTTAAA
[1]
  cleaved RNA product abundance: 0.0824
[2]
  cleaved RNA product abundance: 0.126

## ACAGACGAAGGAGCCGCAAAGAAGTTAATAAGTGATGAATAATCCCTCAATATAAATATCTCTCACTTATTTAAA
[1]
  cleaved RNA product abundance: 0.167
[2]
  cleaved RNA product abundance: 0.129

## ACAGACGAAGGAGCCGCAAATAAGTTATTAAGGGATGAATAATCCCTCAATATAAATGTCTCTCACTTATTTAAA
[2]
  cleaved RNA product abundance: 0.45

## ACAGACGAAGGAGCCGCAAAGAAGTTATAAAGGGATGAATAATCCCTCAATATAGATATCTCTCACTTATTTAAA
[1]
  cleaved RNA product abundance: 0.19
[2]
  cleaved RNA product abundance: 0.475

## ACAGACGAAGGAGCCGCAAAGAAGTTATTAAGGGATGAATAAGCCTTCAATATAAATATCTCTCACTTATTTAAA
[2]
  cleaved RNA product abundance: 0.171

## CGACATGTCCCGCTTCTTTCATTATTCCGTTAGCAACTGTTTTGCTATATCCATTTACCTTTTAAGAGGAGGAAT
[3]
  cleaved RNA product abundance: 0.359

## ACAGACGAAGGAGCCGCAAAGAAGTCATTAAGGGATAAATAATCCCTCAATATAAATATCTCTCACTTATTTAAA
[1]
  cleaved RNA product abundance: 0.195
[2]
  cleaved RNA product abundance: 0.308

## ACAGACGAAGGAGCCGCAAAGAAGTTATTAAGGGATGAATACTCCCTCAATAGAAATATCTCTCACTTATTTAAA
[2]
  cleaved RNA product abundance: 0.115

## ACAGACGAAGGAGCCGCAAAGAAGTTATTAAGGTATGAATAATCCCTCAATGTAAATATCTCTCACTTATTTAAA
[1]
  cleaved RNA product abundance: 0.094
[2]
  cleaved RNA product abundance: 0.0511

## ACAGACGAAGGAGCCGCACAGAAGTTATTAACGGATGAATAATCCCTCAATATAAATATCTCTCACTTATTTAAA
[1]
  cleaved RNA product abundance: 0.121
[2]
  cleaved RNA product abundance: 0.197

## CGACATGTCCCGCTTCTTTCATTAATCCTTTAGCAACTGCTTTGCTATATACATTTACCTTTTAAGAGGAGGAAT
[3]
  cleaved RNA product abundance: 0.292

## ACAGACGAAGGAGCCGCAAATAAGTTATTAAGGGATGAATAATCCCTCAATACAAATATCTCTCACTTATTTAAA
[2]
  cleaved RNA product abundance: 0.106

## CGACATGTCCCGCTTCTTTCATTAATCCGTTTGCATCTGTTTTGCTATATACATTTACCTTTTAAGAGGAGGAAT
[3]
  cleaved RNA product abundance: 0.274

## CGACATGTCCCGCTTCTTTCATTAATCCGTTAGTAACTTTTTTGCTATATACATTTACCTTTTAAGAGGAGGAAT
[3]
  cleaved RNA product abundance: 0.636

## CGACATGTCCCGCTTCTTTCATTATCCCGTTAGCAACTGTTTTGCTATATACTTTTACCTTTTAAGAGGAGGAAT
[3]
  cleaved RNA product abundance: 0.41

## ACAGACGAAGGAGCCGCAAAGAAGTTATTAATGGATGAATAATCCCTCAATTTAAATATCTCTCACTTATTTAAA
[1]
  cleaved RNA product abundance: 0.0807

## CGACATGTCCCGCTTCTTTCATTAATCCGTTAGCAACTGTTTAACTATATACATTTACCTTTTAAGAGGAGGAAT
[3]
  cleaved RNA product abundance: 0.378

## ACAGACGAAGGAGCCGCAAAGAAGTTAATAAGGTATGAATAATCCCTCAATATAAATATCTCTCACTTATTTAAA
[1]
  cleaved RNA product abundance: 0.0951
[2]
  cleaved RNA product abundance: 0.15

## ACAGACGAAGGAGCCGCAAAGAGGTAATTAAGGGATGAATAATCCCTCAATATAAATATCTCTCACTTATTTAAA
[2]
  cleaved RNA product abundance: 0.176

## ACAGACGAAGGAGCCGCAAAGAAGTTCTTAAGGGATGAATAATCCTTCAATATAAATATCTCTCACTTATTTAAA
[1]
  cleaved RNA product abundance: 0.139

## CGACATGTCCCGCTTCTTTCATTAATCCGTTAGCAACTGTTTAGCTATATACATATACCTTTTAAGAGGAGGAAT
[3]
  cleaved RNA product abundance: 0.539

## ACAGACGAAGGAGCCGCAAAGAAATTATTAAGGAATGAATAATCCTTCAATATAAATATCTCTCACTTATTTAAA
[2]
  cleaved RNA product abundance: 0.153

## ACAGACGAAGGAGCCGCAAAGAAGTTATTAAGGGATGTATAATCCCACAATATAAATATCTCTCACTTATTTAAA
[2]
  cleaved RNA product abundance: 0.308

## ACAGACGAAGGAGCCGCGAAGAATTTATTAAGGGATGAATAATCCCTCAATATAAATATCTCTCACTTATTTAAA
[2]
  cleaved RNA product abundance: 0.561

## CGACATGTCCCGCTTCTTTCATTAATCCGTTAGCAACTGTTATGCTATATACGTTTACCTTTTAAGAGGAGGAAT
[3]
  cleaved RNA product abundance: 0.232

## ACAGACGAAGGAGCCGCAAAGAAGTTATTAAGCGATGACTAATCCCTCAATATAAATATCTCTCACTTATTTAAA
[2]
  cleaved RNA product abundance: 0.0948

## ACAGACGAAGGAGCCGCGAAGAAGTTATTAAGGCATGAATAATCCCTCAATATAAATATCTCTCACTTATTTAAA
[1]
  cleaved RNA product abundance: 0.0773

## ACAGACGAAGGAGCCGCAAACAAGTTATTAAGGGATGAAAAATCCCTCAATATAAATATCTCTCACTTATTTAAA
[2]
  cleaved RNA product abundance: 0.359

## ACAGACGAAGGAGCCGCAAAGAAGTTATTAAGGGATGAATAATCCCTCAATATAAATATCACTCACTTATTTAAA
[2]
  cleaved RNA product abundance: 0.917

## ACAGACGAAGGAGCCGCAAAGAATTTATTAAGGGAGGAATAATCCCTCAATATAAATATCTCTCACTTATTTAAA
[2]
  cleaved RNA product abundance: 0.459

## CGACATGTCCCGCTTCTTTCATTAATCCGTTAGCAACTGTTTTGCTAAATAGATTTACCTTTTAAGAGGAGGAAT
[3]
  cleaved RNA product abundance: 0.884

## ACAGACGAAGGAGCCGCAAAGAAGTTATTAAAGGATAAATAAACCCTCAATATAAATATCTCTCACTTATTTAAA
[2]
  cleaved RNA product abundance: 0.128

## ACAGACGAAGGAGCCGCAAAGAAGTTATTAAGGGATGCATAATCCCTCAATATAAATATCTCTCACTTATTTAAA
[1]
  cleaved RNA product abundance: 0.856
[2]
  cleaved RNA product abundance: 0.844
[4]
  cleaved RNA product abundance: 1.15

## CGACATGTCCCGCTTCTTTCATTAATCCGTTAGCAAATGTTTTGCTATATACATTTACATTTTAAGAGGAGGAAT
[3]
  cleaved RNA product abundance: 1.23

## ACAGACGAAGGAGCCGCACAGAAGTTATTAATGGATGAATAATCCCTCAATATAAATATCTCTCACTTATTTAAA
[1]
  cleaved RNA product abundance: 0.103
[2]
  cleaved RNA product abundance: 0.165

## CGACATGTCCCGCTTCTTTCATTACTCCATTAGCAACTGTTTTGCTATATACATTTACCATTTAAGAGGAGGAAT
[3]
  cleaved RNA product abundance: 1.11

## ACAGACGAAGGAGCCGCAAAGAAGTTATTAAGGGATATATAATCCCTCAATATAAATATCTCTCACTTATTTAAA
[2]
  cleaved RNA product abundance: 0.738

## ACAGACGAAGGAGCCGCAAAGACGTTATTAAGGGATGAATAATCCCTCAATATAAATATCTCTCACTTATTTAAA
[1]
  cleaved RNA product abundance: 0.978
[2]
  cleaved RNA product abundance: 1.02
[4]
  cleaved RNA product abundance: 1.12

## ACAGACGAAGGAGCCGCAAAGAAATTATTAAGGCATGAATAATCCCTCAATATAAATATCTCTCACTTATTTAAA
[1]
  cleaved RNA product abundance: 0.109
[2]
  cleaved RNA product abundance: 0.122

## ACAGACGAAGGAGCCGCAACGAAGTTATTAAGGGATGAATAATCCCTCAATATAAATCTCTCTCACTTATTTAAA
[2]
  cleaved RNA product abundance: 0.538

## CGACATGTCCCGCTTCTTTCATTAATCCGTTAGCAACTGTTTTGCTATTTACATTTACCTTTTAAGAGGAGGAAT
[3]
  cleaved RNA product abundance: 0.16

## ACAGACGAAGGAGCCGCAAAGAAGTAATTAAGGGATGAATTATCCCTCAATATAAATATCTCTCACTTATTTAAA
[2]
  cleaved RNA product abundance: 0.355

## ACAGACGAAGGAGCCGCAAAGAAGTTATTAAGGGATGAATAATCCGTCATTATAAATATCTCTCACTTATTTAAA
[1]
  cleaved RNA product abundance: 0.136

## ACAGACGAAGGAGCCGCAAAGAAGGTATTAAGGGATGAATAATCCCTAAATATAAATATCTCTCACTTATTTAAA
[1]
  cleaved RNA product abundance: 0.994
[2]
  cleaved RNA product abundance: 0.966

## ACAGACGAAGGAGCCGCAAAGAAGTTATTAGGGGATGAATAATCCCTCAAAATAAATATCTCTCACTTATTTAAA
[1]
  cleaved RNA product abundance: 0.351
[2]
  cleaved RNA product abundance: 0.476

## ACAGACGAAGGAGCCGCAAAGAAGTTATTAAGGGATGAATAATCACTCAATAAAAATATCTCTCACTTATTTAAA
[2]
  cleaved RNA product abundance: 0.0861
